Test results: patent publication US20110008376

Columns and labels:
[1] = molecular target: cH5-1 (misfolded H5 of A/VN/1203/04, heat cycling)
[2] = molecular target: cH5-2 (misfolded H5 of A/VN/1203/04, heat cycling at pH 2)
[3] = molecular target: cH5-3 (misfolded H5 of A/VN/1203/04, heat cycling at pH 12)
[4] = molecular target: cH5-4 (glycated H5 of A/VN/1203/04)
[5] = molecular target: T1, dOVA-1 (misfolded ovalbumin comprising crossbeta, acid treated), P01012
T1 chain: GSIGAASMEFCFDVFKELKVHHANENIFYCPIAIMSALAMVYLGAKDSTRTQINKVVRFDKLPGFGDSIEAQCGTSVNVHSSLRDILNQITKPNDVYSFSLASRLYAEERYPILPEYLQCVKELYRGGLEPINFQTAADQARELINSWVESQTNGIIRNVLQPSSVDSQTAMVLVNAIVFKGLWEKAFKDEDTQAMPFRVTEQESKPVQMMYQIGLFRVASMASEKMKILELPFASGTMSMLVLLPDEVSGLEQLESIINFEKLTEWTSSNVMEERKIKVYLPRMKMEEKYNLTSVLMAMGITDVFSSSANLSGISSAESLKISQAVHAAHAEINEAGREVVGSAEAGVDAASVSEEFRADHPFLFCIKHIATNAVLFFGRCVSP

[6] = molecular target: T2, dOVA-2 (misfolded ovalbumin comprising crossbeta, cyclic heating 30-85 C), P01012
T2 chain: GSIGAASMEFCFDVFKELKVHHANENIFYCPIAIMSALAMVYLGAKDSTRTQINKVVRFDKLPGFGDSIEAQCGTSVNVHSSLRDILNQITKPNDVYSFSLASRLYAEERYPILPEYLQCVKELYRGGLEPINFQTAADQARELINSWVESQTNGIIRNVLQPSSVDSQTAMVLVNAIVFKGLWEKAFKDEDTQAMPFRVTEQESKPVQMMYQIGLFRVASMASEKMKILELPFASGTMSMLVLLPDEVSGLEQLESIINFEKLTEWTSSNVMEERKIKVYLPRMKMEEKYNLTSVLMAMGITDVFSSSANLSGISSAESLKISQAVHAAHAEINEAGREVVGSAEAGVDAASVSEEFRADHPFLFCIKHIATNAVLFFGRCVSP

[7] = molecular target: T3, dOVA-3 (misfolded ovalbumin comprising crossbeta, about 16 h at 75 C), P01012
T3 chain: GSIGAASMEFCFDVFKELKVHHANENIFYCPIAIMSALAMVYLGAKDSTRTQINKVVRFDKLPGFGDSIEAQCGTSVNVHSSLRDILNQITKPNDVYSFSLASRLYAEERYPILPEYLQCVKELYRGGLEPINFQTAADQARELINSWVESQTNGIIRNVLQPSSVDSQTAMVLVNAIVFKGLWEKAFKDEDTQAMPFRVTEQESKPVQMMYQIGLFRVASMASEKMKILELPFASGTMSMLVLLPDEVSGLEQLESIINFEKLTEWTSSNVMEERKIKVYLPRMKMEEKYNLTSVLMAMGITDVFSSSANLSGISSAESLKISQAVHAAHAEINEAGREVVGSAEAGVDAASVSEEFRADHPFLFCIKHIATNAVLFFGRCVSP

[8] = molecular target: nH5 (non-treated H5 of H5N1 strain A/Vietnam/1203/04, first example)
[9] = molecular target: T4, nOVA (untreated ovalbumin, 1 mg/ml in PBS), P01012
T4 chain: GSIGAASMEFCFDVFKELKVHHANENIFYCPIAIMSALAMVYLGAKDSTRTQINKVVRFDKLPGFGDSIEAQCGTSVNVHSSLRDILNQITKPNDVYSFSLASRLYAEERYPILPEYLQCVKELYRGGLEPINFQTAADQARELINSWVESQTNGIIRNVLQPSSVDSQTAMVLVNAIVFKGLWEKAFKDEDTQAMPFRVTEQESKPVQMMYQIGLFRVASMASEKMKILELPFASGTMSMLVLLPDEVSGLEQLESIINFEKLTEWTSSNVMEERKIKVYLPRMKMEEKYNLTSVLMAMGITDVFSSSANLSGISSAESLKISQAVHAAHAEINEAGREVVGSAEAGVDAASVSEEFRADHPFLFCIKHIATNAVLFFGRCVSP

B1: tissue type plasminogen activator (tPA) (protein)
chain: SYQVICRDEKTQMIYQQHQSWLRPVLRSNRVEYCWCNSGRAQCHSVPVKSCSEPRCFNGGTCQQALYFSDFVCQCPEGFAGKCCEIDTRATCYEDQGISYRGTWSTAESGAECTNWNSSALAQKPYSGRRPDAIRLGLGNHNYCRNPDRDSKPWCYVFKAGKYSSEFCSTPACSEGNSDCYFGNGSAYRGTHSLTESGASCLPWNSMILIGKVYTAQNPSAQALGLGKHNYCRNPDGDAKPWCHVLKNRRLTWEYCDVPSCSTCGLRQYSQPQFRIKGGLFADIASHPWQAAIFAKHRRSPGERFLCGGILISSCWILSAAHCFQERFPPHHLTVILGRTYRVVPGEEEQKFEVEKYIVHKEFDDDTYDNDIALLQLKSDSSRCAQESSVVRTVCLPPADLQLPDWTECELSGYGKHEALSPFYSERLKEAHVRLYPSSRCTSQHLLNRTVTDNMLCAGDTRSGGPQANLHDACQGDSGGPLVCLNDGRMTLVGIISWGLGCGQKDVPGVYTKVTNYLDWIRDNMRP
tPA mediated plasminogen activation assay [1]: cH5-1 (50% of standard) | tPA mediated plasminogen activation assay [2]: cH5-2 (150% of standard) | tPA mediated plasminogen activation assay [3]: cH5-3 (200% of standard) | tPA mediated plasminogen activation assay [4]: cH5-4 (37% of standard) | tPA activation potency, Activation at 10 µg/mL [5]: 97.4% | tPA activation potency, Activation at 25 µg/mL [5]: 136% | tPA activation potency, Activation at 10 µg/mL [6]: 107% | tPA activation potency, Activation at 25 µg/mL [6]: 107% | tPA-mediated plasminogen activation (plasmin chromogenic substrate), reference dOVA-2 at 80 µg/mL [6]: 100% | tPA/Plg activating potential, crossbeta ovalbumin standard at 10 µg/ml [6]: at 10 and 50 µg/ml, tPA/plg activation is 100% and 85%, respectively | tPA/Plg activating potential, crossbeta ovalbumin standard at 30 µg/ml [6]: The activating potential of crossbeta ovalbumin standard at 30 µg/ml is set to 100% | tPA/Plg activating potential, crossbeta ovalbumin standard at 50 µg/ml [6]: at 10 and 50 µg/ml, tPA/plg activation is 100% and 85%, respectively | tPA activation potency, Activation at 10 µg/mL [7]: 60.9% | tPA activation potency, Activation at 25 µg/mL [7]: 79% | tPA mediated plasminogen activation assay [8]: nH5 (140% of standard) | tPA activation potency, Activation at 10 µg/mL [9]: 48.8% | tPA activation potency, Activation at 25 µg/mL [9]: 48.1%
